Data as given in PMC4258231.

Target: typhoid toxin B subunit PltB (Salmonella Typhi) (UniProt Q8Z6A3)
Experiment: crystal structure

With “typhoid toxin B subunit PltB (from UniProt Q8Z6A3 1-137) (natural protein)” as the substance, how does the stoichiometry N read?
Its stoichiometry N is 5.
